Measurements reported in patent US20200317768A1 (published 2020).

What was measured:
[1] = molecular target: T1, cynomolgus monkey FcγRIIb extracellular domain, His-tagged (cynomolgus monkey); experiment: SPR (BIACORE), captured antibody, FcgR as analyte
T1 construct: also called cyno FcγRIIb; cynoFcγRIIb; not shown: C-terminal His-tag
T1 chain: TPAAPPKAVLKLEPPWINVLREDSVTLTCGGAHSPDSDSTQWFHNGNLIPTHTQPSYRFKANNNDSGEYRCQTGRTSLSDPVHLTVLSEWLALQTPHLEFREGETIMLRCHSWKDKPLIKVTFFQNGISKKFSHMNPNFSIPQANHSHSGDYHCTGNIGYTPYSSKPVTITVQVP

[2] = molecular target: T2, human FcγRIIaH extracellular domain, His-tagged (human, UniProt P12318 34-217); experiment: SPR (BIACORE), captured antibody, FcgR as analyte
T2 construct: also called human FcγRIIa (type H); FcgRIIaH; not shown: C-terminal His-tag
T2 sequence: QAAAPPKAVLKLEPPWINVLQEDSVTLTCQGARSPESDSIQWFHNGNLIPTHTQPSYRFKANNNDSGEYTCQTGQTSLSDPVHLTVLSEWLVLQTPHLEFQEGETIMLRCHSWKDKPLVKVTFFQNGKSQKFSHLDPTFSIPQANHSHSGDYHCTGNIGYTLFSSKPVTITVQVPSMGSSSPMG

[3] = molecular target: T3, cynomolgus monkey FcγRIIa3 extracellular domain, His-tagged (cynomolgus monkey); experiment: SPR (BIACORE), captured antibody, FcgR as analyte
T3 construct: also called cyno FcγRIIa3; cynoFcgRIIa3; not shown: C-terminal His-tag
T3 chain: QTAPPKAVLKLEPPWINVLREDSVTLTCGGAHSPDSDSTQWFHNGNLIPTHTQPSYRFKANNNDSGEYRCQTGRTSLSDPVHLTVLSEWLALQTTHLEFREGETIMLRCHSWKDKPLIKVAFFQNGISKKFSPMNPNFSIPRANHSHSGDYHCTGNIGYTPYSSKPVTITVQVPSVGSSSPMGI

[4] = molecular target: T4, human FcγRIIaR extracellular domain, His-tagged (human, UniProt P12318 34-217); experiment: SPR (BIACORE), captured antibody, FcgR as analyte
T4 construct: also called human FcγRIIa (type R); FcgRIIaR; not shown: C-terminal His-tag
T4 chain: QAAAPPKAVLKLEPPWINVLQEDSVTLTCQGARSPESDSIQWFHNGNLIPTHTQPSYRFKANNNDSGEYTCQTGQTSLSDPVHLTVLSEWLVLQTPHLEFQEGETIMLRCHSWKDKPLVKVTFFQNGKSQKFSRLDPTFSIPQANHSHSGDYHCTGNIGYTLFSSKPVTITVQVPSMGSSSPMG

[5] = molecular target: T5, cynomolgus monkey FcγRIIa1 extracellular domain, His-tagged (cynomolgus monkey); experiment: SPR (BIACORE), captured antibody, FcgR as analyte
T5 construct: also called cyno FcγRIIa1; cynoFcgRIIa1; not shown: C-terminal His-tag
T5 chain: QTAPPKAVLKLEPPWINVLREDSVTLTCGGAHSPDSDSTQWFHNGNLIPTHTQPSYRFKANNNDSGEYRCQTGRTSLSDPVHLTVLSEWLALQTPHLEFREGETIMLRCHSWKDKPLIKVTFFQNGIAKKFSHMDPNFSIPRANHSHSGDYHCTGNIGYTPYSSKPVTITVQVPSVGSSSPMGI

[6] = molecular target: T6, cynomolgus monkey FcγRIIIaS extracellular domain, His-tagged (cynomolgus monkey, UniProt Q8SPW2 21-206 at identity 1.00)); experiment: SPR (BIACORE), captured antibody, FcgR as analyte
T6 construct: also called cyno FcγRIIIaS; cynoFcγRIIIaS; not shown: C-terminal His-tag
T6 chain: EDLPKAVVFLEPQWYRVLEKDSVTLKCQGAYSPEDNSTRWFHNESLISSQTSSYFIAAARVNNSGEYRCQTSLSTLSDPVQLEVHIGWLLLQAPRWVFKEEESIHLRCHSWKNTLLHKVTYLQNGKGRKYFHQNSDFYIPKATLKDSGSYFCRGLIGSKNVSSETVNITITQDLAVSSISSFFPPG

[7] = molecular target: T7, human FcγRIIIaV extracellular domain, His-tagged (human, UniProt P08637 17-208); experiment: SPR (BIACORE), captured antibody, FcgR as analyte
T7 construct: also called FcgRIIIaV; not shown: C-terminal His-tag

[8] = molecular target: T8, cynomolgus monkey FcγRIIa2 extracellular domain, His-tagged (cynomolgus monkey); experiment: SPR (BIACORE), captured antibody, FcgR as analyte
T8 construct: also called cyno FcγRIIa2; cynoFcgRIIa2; not shown: C-terminal His-tag
T8 chain: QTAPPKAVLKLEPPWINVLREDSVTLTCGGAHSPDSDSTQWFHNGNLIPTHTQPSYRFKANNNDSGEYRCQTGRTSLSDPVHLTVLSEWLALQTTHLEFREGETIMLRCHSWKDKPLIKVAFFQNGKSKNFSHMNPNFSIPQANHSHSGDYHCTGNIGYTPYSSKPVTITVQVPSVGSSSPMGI

[9] = molecular target: T6, cynomolgus monkey FcγRIIIaS …; experiment: SPR (BIACORE); KD of SG1 divided by KD of variant;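 note: relative to parent M103205H795-SG1 carrying the SG1 human heavy chain constant region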

T7 sequence (P08637 17-208 F176V): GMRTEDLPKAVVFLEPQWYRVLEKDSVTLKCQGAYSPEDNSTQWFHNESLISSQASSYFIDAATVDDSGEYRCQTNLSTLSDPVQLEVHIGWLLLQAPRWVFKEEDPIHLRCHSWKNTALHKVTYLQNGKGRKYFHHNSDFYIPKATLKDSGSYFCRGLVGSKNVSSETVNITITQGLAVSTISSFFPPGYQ

Row | Binder | Kd [1] | Kd [2] | Kd [3] | Kd [4] | Kd [5] | Kd [6] | Kd [7] | Kd [8] | KD fold (SG1 = 1) [9]
1 | M103205H795-MY444/M103202L889-SK1 (antibody, human IgG1, kappa, copies: 2 + 2) heavy: QVTLKESGPVLVKPTETLTLTCTVSGIDLSHDDISWVRQAPGKGLEWVGIISYAGSTYYASWAKGRLTISKDTSKNQVVLTMTNMDPVDTATYYCARGVPAYSHGGDLWGQGTLVTVSSASTKGPSVFPLAPSSKSTSGGTAALGCLVKDYFPEPVTVSWNSGALTSGVHTFPAVLQSSGLYSLSSVVTVPSSSLGTQTYICNVNHKPSNTKVDKKVEPKSCDKTHTCPPCPAFELLTGPSVFLFPPKPKDTLMISRTPEVTCVVVDVSDEDPEVKFNWYVDGVEVHNAKTKPREEQYNSTYRVVSVLTVLHQDWLNGKEYKCKVSNKALPKPIEKTISKAKGQPREPQVYTLPPSREEMTKNQVSLTCLVKGFYPSDIAVEWESNGQPENNYKTTPPVLDSDGSFFLYSKLTVDKSRWQQGNVFSCSVMHEALHNHYTQKSLSLSP light: DIVMTQSPATLSLSPGERATLSCTSSQSVYHANWLSWFQQKPGQPPKLLIYWASTLAYGVPSRFSGSGSGTDFTLTISSLQPEDAATYYCAGGYGGGRYAFGQGTKVEIKRTVAAPSVFIFPPSDEQLKSGTASVVCLLNNFYPREAKVQWKVDNALQSGNSQESVTEQDSKDSTYSLSSTLTLSKADYEKHKVYACEVTHQGLSSPVTKSFNRGEC | 300 nM | 110 nM | 1900 nM | 140 nM | 1200 nM | 1600 nM | 5200 nM | 1100 nM | 0.2 fold
2 | M103205H795-MY446/M103202L889-SK1 (antibody, human IgG1, kappa, copies: 2 + 2) heavy: QVTLKESGPVLVKPTETLTLTCTVSGIDLSHDDISWVRQAPGKGLEWVGIISYAGSTYYASWAKGRLTISKDTSKNQVVLTMTNMDPVDTATYYCARGVPAYSHGGDLWGQGTLVTVSSASTKGPSVFPLAPSSKSTSGGTAALGCLVKDYFPEPVTVSWNSGALTSGVHTFPAVLQSSGLYSLSSVVTVPSSSLGTQTYICNVNHKPSNTKVDKKVEPKSCDKTHTCPPCPAHELLTGPSVFLFPPKPKDTLMISRTPEVTCVVVDVSDEDPEVKFNWYVDGVEVHNAKTKPREEQYNSTYRVVSVLTVLHQDWLNGKEYKCKVSNKALPKPIEKTISKAKGQPREPQVYTLPPSREEMTKNQVSLTCLVKGFYPSDIAVEWESNGQPENNYKTTPPVLDSDGSFFLYSKLTVDKSRWQQGNVFSCSVMHEALHNHYTQKSLSLSP light: DIVMTQSPATLSLSPGERATLSCTSSQSVYHANWLSWFQQKPGQPPKLLIYWASTLAYGVPSRFSGSGSGTDFTLTISSLQPEDAATYYCAGGYGGGRYAFGQGTKVEIKRTVAAPSVFIFPPSDEQLKSGTASVVCLLNNFYPREAKVQWKVDNALQSGNSQESVTEQDSKDSTYSLSSTLTLSKADYEKHKVYACEVTHQGLSSPVTKSFNRGEC | 630 nM | 260 nM | 4700 nM | 480 nM | 2500 nM | 2900 nM | 7100 nM | 2200 nM | 0.1 fold
3 | M103205H795-MY448/M103202L889-SK1 (antibody, human IgG1, kappa, copies: 2 + 2) heavy: QVTLKESGPVLVKPTETLTLTCTVSGIDLSHDDISWVRQAPGKGLEWVGIISYAGSTYYASWAKGRLTISKDTSKNQVVLTMTNMDPVDTATYYCARGVPAYSHGGDLWGQGTLVTVSSASTKGPSVFPLAPSSKSTSGGTAALGCLVKDYFPEPVTVSWNSGALTSGVHTFPAVLQSSGLYSLSSVVTVPSSSLGTQTYICNVNHKPSNTKVDKKVEPKSCDKTHTCPPCPAKELLTGPSVFLFPPKPKDTLMISRTPEVTCVVVDVSDEDPEVKFNWYVDGVEVHNAKTKPREEQYNSTYRVVSVLTVLHQDWLNGKEYKCKVSNKALPKPIEKTISKAKGQPREPQVYTLPPSREEMTKNQVSLTCLVKGFYPSDIAVEWESNGQPENNYKTTPPVLDSDGSFFLYSKLTVDKSRWQQGNVFSCSVMHEALHNHYTQKSLSLSP light: DIVMTQSPATLSLSPGERATLSCTSSQSVYHANWLSWFQQKPGQPPKLLIYWASTLAYGVPSRFSGSGSGTDFTLTISSLQPEDAATYYCAGGYGGGRYAFGQGTKVEIKRTVAAPSVFIFPPSDEQLKSGTASVVCLLNNFYPREAKVQWKVDNALQSGNSQESVTEQDSKDSTYSLSSTLTLSKADYEKHKVYACEVTHQGLSSPVTKSFNRGEC | 2300 nM | 930 nM | 21000 nM | 2200 nM | 9600 nM | 6500 nM | 13000 nM | 7500 nM | 0.1 fold
4 | M103205H795-MY447/M103202L889-SK1 (antibody, human IgG1, kappa, copies: 2 + 2) heavy: QVTLKESGPVLVKPTETLTLTCTVSGIDLSHDDISWVRQAPGKGLEWVGIISYAGSTYYASWAKGRLTISKDTSKNQVVLTMTNMDPVDTATYYCARGVPAYSHGGDLWGQGTLVTVSSASTKGPSVFPLAPSSKSTSGGTAALGCLVKDYFPEPVTVSWNSGALTSGVHTFPAVLQSSGLYSLSSVVTVPSSSLGTQTYICNVNHKPSNTKVDKKVEPKSCDKTHTCPPCPAIELLTGPSVFLFPPKPKDTLMISRTPEVTCVVVDVSDEDPEVKFNWYVDGVEVHNAKTKPREEQYNSTYRVVSVLTVLHQDWLNGKEYKCKVSNKALPKPIEKTISKAKGQPREPQVYTLPPSREEMTKNQVSLTCLVKGFYPSDIAVEWESNGQPENNYKTTPPVLDSDGSFFLYSKLTVDKSRWQQGNVFSCSVMHEALHNHYTQKSLSLSP light: DIVMTQSPATLSLSPGERATLSCTSSQSVYHANWLSWFQQKPGQPPKLLIYWASTLAYGVPSRFSGSGSGTDFTLTISSLQPEDAATYYCAGGYGGGRYAFGQGTKVEIKRTVAAPSVFIFPPSDEQLKSGTASVVCLLNNFYPREAKVQWKVDNALQSGNSQESVTEQDSKDSTYSLSSTLTLSKADYEKHKVYACEVTHQGLSSPVTKSFNRGEC | 230 nM | 97 nM | 1050 nM | 98 nM | 990 nM | 1100 nM | 4000 nM | 880 nM | 0.5 fold
5 | M103205H795-MY445/M103202L889-SK1 (antibody, human IgG1, kappa, copies: 2 + 2) heavy: QVTLKESGPVLVKPTETLTLTCTVSGIDLSHDDISWVRQAPGKGLEWVGIISYAGSTYYASWAKGRLTISKDTSKNQVVLTMTNMDPVDTATYYCARGVPAYSHGGDLWGQGTLVTVSSASTKGPSVFPLAPSSKSTSGGTAALGCLVKDYFPEPVTVSWNSGALTSGVHTFPAVLQSSGLYSLSSVVTVPSSSLGTQTYICNVNHKPSNTKVDKKVEPKSCDKTHTCPPCPAGELLTGPSVFLFPPKPKDTLMISRTPEVTCVVVDVSDEDPEVKFNWYVDGVEVHNAKTKPREEQYNSTYRVVSVLTVLHQDWLNGKEYKCKVSNKALPKPIEKTISKAKGQPREPQVYTLPPSREEMTKNQVSLTCLVKGFYPSDIAVEWESNGQPENNYKTTPPVLDSDGSFFLYSKLTVDKSRWQQGNVFSCSVMHEALHNHYTQKSLSLSP light: DIVMTQSPATLSLSPGERATLSCTSSQSVYHANWLSWFQQKPGQPPKLLIYWASTLAYGVPSRFSGSGSGTDFTLTISSLQPEDAATYYCAGGYGGGRYAFGQGTKVEIKRTVAAPSVFIFPPSDEQLKSGTASVVCLLNNFYPREAKVQWKVDNALQSGNSQESVTEQDSKDSTYSLSSTLTLSKADYEKHKVYACEVTHQGLSSPVTKSFNRGEC | 1400 nM | 560 nM | 14000 nM | 1200 nM | 5600 nM | 3500 nM | 9500 nM | 5500 nM | 0.1 fold
